Test results: patent US20260258376

Legend:
Experiment in all cases: cell_activity
[1] = test system: ZF-off targeting TAR1649 (second row, 10.70%) (synthetic); conditions: HLA-DR+ 10.70%; binding inferred from silencing
[2] = test system: ZF-off targeting TAR1623 (table row SEQ 1605) (synthetic); conditions: HLA-DR+ 10.56%; binding inferred from silencing
[3] = test system: ZF-off targeting TAR1616 (table row SEQ 1557) (synthetic); conditions: HLA-DR+ 5.76%; binding inferred from silencing
[4] = test system: ZF-off targeting TAR1615 (table row SEQ 1601) (synthetic); conditions: HLA-DR+ 4.50%; binding inferred from silencing
[5] = test system: ZF-off targeting TAR1612 (table row SEQ 1599) (synthetic); conditions: HLA-DR+ 12.50%; binding inferred from silencing
[6] = test system: ZF-off targeting TAR1604 (table row SEQ 1576) (synthetic); conditions: HLA-DR+ 12.84%; binding inferred from silencing
[7] = test system: ZF-off targeting TAR1646 (table row SEQ 1547) (synthetic); conditions: HLA-DR+ 3.88%; binding inferred from silencing
[8] = test system: ZF-off targeting TAR1650 (table row SEQ 1549) (synthetic); conditions: HLA-DR+ 13.65%; binding inferred from silencing
[9] = test system: ZF-off targeting TAR1608 (table row SEQ 1608) (synthetic); conditions: HLA-DR+ 12.05%; binding inferred from silencing
[10] = test system: ZF-off targeting TAR1648 (third row, 4.51%) (synthetic); conditions: HLA-DR+ 4.51%; binding inferred from silencing
[11] = test system: ZF-off targeting TAR186 (table row SEQ 1553) (synthetic); conditions: HLA-DR+ 7.53%; binding inferred from silencing
[12] = test system: ZF-off targeting TAR1654 (table row SEQ 1572) (synthetic); conditions: HLA-DR+ in primary human T cells, 2.64%; binding inferred from silencing
[13] = test system: ZF-off targeting TAR1607 (table row SEQ 1538) (synthetic); conditions: HLA-DR+ 6.46%; binding inferred from silencing
[14] = test system: ZF-off targeting TAR1655 (table row SEQ 1563) (synthetic); conditions: HLA-DR+ 15.20%; binding inferred from silencing

## ACAGAAAGTCTGTTGGGGG (double strand) [TAR1649]
[1]
  activity (fraction of off-target control): 0.31

## GGAGGGGGAGAAGTCAGAG (double strand) [TAR1623]
[2]
  activity (fraction of off-target control): 0.3

## GAACAGATGGTGGGAAGAG (double strand) [TAR1616]
[3]
  activity (fraction of off-target control): 0.16

## GACGGGGGAACAGATGGTG (double strand) [TAR1615]
[4]
  activity (fraction of off-target control): 0.13

## GCAGCTGGGGAGAGCTGGC (double strand) [TAR1612]
[5]
  activity (fraction of off-target control): 0.36

## GAGGCATCTGGGCGGAGGG (double strand) [TAR1604]
[6]
  activity (fraction of off-target control): 0.37

## GTGGTATCAAGGAGGAAGT (double strand) [TAR1646]
[7]
  activity (fraction of off-target control): 0.11

## GAATTTGGTGAAGACAGAA (double strand) [TAR1650]
[8]
  activity (fraction of off-target control): 0.39

## GGAGCTGCTGCCTGGCTGG (double strand) [TAR1608]
[9]
  activity (fraction of off-target control): 0.34

## GAGAGCCTCTGCTGGGGAC (double strand) [TAR1648]
[10]
  activity (fraction of off-target control): 0.13

## GAGGCTGTGTGCTTCTGAG (double strand) [TAR186]
[11]
  activity (fraction of off-target control): 0.22

## GACAGGTAGGACCCAGCAG (double strand) [TAR1654]
[12]
  activity (fraction of off-target control): 0.08

## AGGGCACGAGGAGGGGCTG (double strand) [TAR1607]
[13]
  activity (fraction of off-target control): 0.18

## TGGGTATGGAGTGGAGTCT (double strand) [TAR1655]
[14]
  activity (fraction of off-target control): 0.43
